Measured values taken from paper PMC3669275.
pKd: −log10 of the molar value.

Key:
[1] = biological target: HIV-1 HXB2 Env (gp160; gp41) expressed on CHO-Env cells (HIV-1 HXB2) (UniProt P04578)
[2] = biological target: HIV-1 HXB2 Env (gp160; gp41) expressed on CHO-Env cells (HIV-1 HXB2) (UniProt P04578); remark: listed apart in the source
[3] = biological target: 3NC, recombinant protein with a triplicate N36-GGSGG-C34 (HIV-1); experiment: SPR; BIACORE X; 3NC (100 µg/ml) amine-coupled to a CM5 chip; C60 or POB1 (333–461) injected at 20 µl/min; 10 mM HEPES pH 7.4, 0.15 M NaCl, 3.4 mM EDTA, 0.005% P20

**Q.** With “C60, recombinant POB1 (462–521) (domain or fragment)” as the substance, how does the IC50 of inhibition of HIV-1 Env-mediated cell-cell fusion (syncytium formation, CHO-Env with 3T3.T4.CXCR4 cells) [1] read?
**A.** The IC50 of inhibition of HIV-1 Env-mediated cell-cell fusion (syncytium formation, CHO-Env with 3T3.T4.CXCR4 cells) was 1.09 µM.

**Q.** And the IC50 of inhibition of infection of MT-2 cells by HIV-1 IIIB (X4-tropic), p24 ELISA [2]?
**A.** Its IC50 of inhibition of infection of MT-2 cells by HIV-1 IIIB (X4-tropic), p24 ELISA is 15.3 µM.

**Q.** And the IC50 of inhibition of infection of TZM-bl cells by HIV-1 Bal (R5-tropic; the Env is that of strain Bal), luciferase [2]?
**A.** The IC50 of inhibition of infection of TZM-bl cells by HIV-1 Bal (R5-tropic; the Env is that of strain Bal), luciferase was 9.21 µM.

**Q.** And the pKd [3]?
**A.** Its pKd is 7.81.
